From patent publication US20120135923A1, “Use of Melanocortins to Treat Dyslipidemia” (IPSEN PHARMA, S.A.S., priority 2009, published 2012)
Bridge positions count the residues as written; N and C are the ends. Square brackets hold non-standard residues; d marks the D form. 1Nal = N[C@@H](Cc1cccc2ccccc12)C(=O)O; 2Nal = N[C@@H](Cc1ccc2ccccc2c1)C(=O)O; d2Nal = N[C@H](Cc1ccc2ccccc2c1)C(=O)O

What was measured:
Test in all cases: cell-based or functional assay
hMC4-R (human) = hMC4-R (human) (UniProt P32245)
Sequence of hMC4-R (human) (P32245 whole entry): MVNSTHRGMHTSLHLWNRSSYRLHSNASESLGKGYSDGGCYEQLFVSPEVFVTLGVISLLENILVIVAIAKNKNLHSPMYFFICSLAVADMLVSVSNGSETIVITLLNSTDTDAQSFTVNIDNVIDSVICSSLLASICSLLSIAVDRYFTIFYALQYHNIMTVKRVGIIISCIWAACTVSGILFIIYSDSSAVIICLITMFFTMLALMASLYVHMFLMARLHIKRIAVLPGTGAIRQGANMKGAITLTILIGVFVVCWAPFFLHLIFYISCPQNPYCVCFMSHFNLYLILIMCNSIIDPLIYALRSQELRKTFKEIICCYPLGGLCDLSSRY

hMC3-R (human) = hMC3-R (human) (UniProt P41968)
Sequence of hMC3-R (human) (P41968 whole entry): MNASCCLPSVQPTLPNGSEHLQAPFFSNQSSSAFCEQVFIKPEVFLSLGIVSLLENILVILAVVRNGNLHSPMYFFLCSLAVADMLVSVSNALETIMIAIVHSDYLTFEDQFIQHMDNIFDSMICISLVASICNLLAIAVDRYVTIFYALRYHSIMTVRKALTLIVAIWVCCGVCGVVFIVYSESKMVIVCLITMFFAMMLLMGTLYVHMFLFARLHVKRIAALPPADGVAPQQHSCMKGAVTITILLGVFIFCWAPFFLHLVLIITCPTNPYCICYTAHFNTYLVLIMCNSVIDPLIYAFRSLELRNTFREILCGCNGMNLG

hMC1-R (human) = hMC1-R (human) (UniProt Q01726)
Sequence of hMC1-R (human) (Q01726 whole entry): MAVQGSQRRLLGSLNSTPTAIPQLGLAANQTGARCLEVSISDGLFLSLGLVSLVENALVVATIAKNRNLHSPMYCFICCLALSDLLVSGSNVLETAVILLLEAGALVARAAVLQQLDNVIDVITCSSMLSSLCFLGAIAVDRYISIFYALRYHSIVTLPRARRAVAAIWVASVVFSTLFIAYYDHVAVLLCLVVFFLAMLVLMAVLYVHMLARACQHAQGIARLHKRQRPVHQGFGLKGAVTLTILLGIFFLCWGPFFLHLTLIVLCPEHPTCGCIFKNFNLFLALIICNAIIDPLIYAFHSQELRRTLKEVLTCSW

hMC5-R (human) = hMC5-R (human) (UniProt P33032)
Sequence of hMC5-R (human) (P33032 whole entry): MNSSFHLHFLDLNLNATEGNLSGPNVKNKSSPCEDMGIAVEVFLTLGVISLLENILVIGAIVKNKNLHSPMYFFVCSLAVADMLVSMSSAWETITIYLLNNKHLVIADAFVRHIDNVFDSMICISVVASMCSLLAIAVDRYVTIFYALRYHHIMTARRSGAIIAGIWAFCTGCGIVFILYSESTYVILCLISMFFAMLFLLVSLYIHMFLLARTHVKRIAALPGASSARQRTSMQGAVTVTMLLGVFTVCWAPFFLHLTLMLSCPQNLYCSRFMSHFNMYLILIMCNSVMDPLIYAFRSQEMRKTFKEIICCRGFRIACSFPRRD

Row | Substance | cAMP EC50 (hMC4-R (human)) [nM] | cAMP EC50 (hMC3-R (human)) [nM] | cAMP EC50 (hMC1-R (human)) | cAMP Kb (hMC4-R (human)) | cAMP Kb (hMC3-R (human)) | cAMP EC50 (hMC5-R (human)) [nM]
1 | Hydantoin(C(O)-(Gly-Gly))-c(Cys-Glu-His-D-Phe-Arg-Trp-Cys)-NH2 (peptide; unit assumed) | 0.214 | 8.05 | 124 nM | – | – | –
2 | Hydantoin(C(O)-(D-Arg-Gly))-c(Cys-Glu-His-D-Phe-Arg-Trp-Cys)-NH2 (peptide; unit assumed) | 0.16 | 17.1 | 18 nM | – | – | –
3 | Hydantoin(C(O)-(Gly-Arg))-c(Cys-D-Ala-His-D-Phe-Arg-Trp-Cys)-NH2 (peptide; unit assumed) | 0.599 | 5.17 | 8.85 nM | – | – | –
4 | Ac-Nle-c(Asp-His-D-2-Nal-Arg-Trp-Lys)-β-Ala-β-Ala-Tyr-Gly-Arg-Lys-Lys-Arg-Arg-Gln-Arg-Arg-Arg-NH2 (peptide; in nM (unit assumed)) | – | – | 1.39 | 7.94 | 16.2 | –
5 | Ac-2-Nal-Arg-c(Cys-D-Ala-His-D-Phe-Arg-Trp-Cys)-NH2 (peptide; unit assumed) | 0.275 | 6.11 | 9.66 nM | – | – | 1730
6 | Hydantoin(C(O)-(Val-Nle))-c(Cys-D-Ala-His-D-Phe-Arg-Trp-Cys)-NH2 (peptide; unit assumed) | 0.977 | 4.61 | – | – | – | –
7 | Ac-Nle-c(Cys-D-Ala-His-D-Phe-Arg-Trp-Cys)-NH2 (peptide; unit assumed) | 0.078 | 0.33 | 2.4 nM | – | – | 420
8 | Nle-c(Asp-His-D-2-Nal-Arg-Trp-Lys)-β-Ala-Tyr-Gly-Arg-Lys-Lys-Arg-Arg-Gln-Arg-Arg-Arg-NH2 (peptide; in nM (unit assumed)) | – | – | – | 18.5 | 207 | –
9 | Ac-c(Cys-Glu-His-D-2-Nal-Arg-Trp-Ala-Cys)-Pro-Pro-Lys-Asp-β-Ala-Tyr-Gly-Arg-Lys-Lys-Arg-Arg-Gln-Arg-Arg-Arg-NH2 (peptide; unit assumed) | – | – | – | – | – | 38.2
10 | Ac-Nle-c(Asp-His-D-2-Nal-Arg-Trp-Ala-Lys)-NH2 (peptide; unit assumed) | – | – | 0.619 nM | – | – | –
11 | Ac-Tyr-Arg-c(Cys-D-Ala-His-D-Phe-Arg-Trp-Cys)-NH2 (peptide; unit assumed) | – | 2.39 | – | – | – | 1540
12 | Ac-Nle-c(Asp-His-D-2-Nal-Arg-Trp-Lys)-β-Ala-Tyr-Gly-Arg-Lys-Lys-Arg-Arg-Gln-Arg-Arg-Arg-NH2 (peptide; in nM (unit assumed)) | – | – | – | 4.07 | 220 | –
13 | Ac-Nle-c(Asp-His-D-2-Nal-Arg-Trp-β-Ala-Lys)-NH2 (peptide; unit assumed) | – | – | 0.913 nM | – | – | –
14 | Ac-Arg-c(Cys-D-Ala-His-D-Phe-Arg-Trp-Cys)-NH2 (peptide; unit assumed) | – | – | – | – | – | 1630
15 | Ac-CEH[d2Nal]R[1Nal]ACPPKD-NH2 (disulfide 1-8) [listing 2 of 2 here] | – | – | – | – | – | 104
16 | Ac-Nle-c(Asp-His-D-2-Nal-Arg-Trp-Lys)-β-Ala-β-Ala-Tyr-Gly-Arg-Lys-Lys-Arg-Arg-Gln-Arg-Arg-Arg-NH2 (peptide; unit assumed) | – | – | – | – | – | 0.839
17 | Hydantoin(C(O)-(Gly-Arg))-c(Cys-Glu-His-D-Phe-Arg-Trp-Cys)-NH2 (peptide) | – | – | – | – | – | 335
18 | Hydantoin(C(O)-(Arg-Gly))-c(Cys-D-Ala-His-D-Phe-Arg-Trp-Cys)-NH2 (peptide) | – | – | – | – | – | 3560
19 | Hydantoin(C(O)-(Gly-Gly))-c(Cys-Glu-His-D-Phe-Arg-Trp-Cys)-NH2 (peptide) | – | – | – | – | – | > 10000
20 | Ac-c(Cys-Glu-His-D-2-Nal-Arg-Trp-Ala-Cys)-Pro-Pro-Lys-Asp-β-Ala-Tyr-Gly-Arg-Lys-Lys-Arg-Arg-Gln-Arg-Arg-Arg-NH2 (peptide; in nM (unit assumed)) | – | – | 6.3 | 1.66 | 70 | –
21 | Hydantoin(C(O)-(A6c-Nle))-c(Cys-D-Ala-His-D-Phe-Arg-Trp-Cys)-NH2 (peptide; unit assumed) | 1.8 | – | – | – | – | –
22 | Hydantoin(C(O)-(Arg-Gly))-c(Cys-Glu-His-D-Phe-Arg-Trp-Cys)-NH2 (peptide; unit assumed) | 0.0979 | 7.86 | 8.83 nM | – | – | –

The next lines start with the values.

Row | cAMP EC50 (hMC4-R (human)) [nM] | cAMP EC50 (hMC3-R (human)) [nM] | cAMP EC50 (hMC1-R (human)) | cAMP Kb (hMC4-R (human)) | cAMP Kb (hMC3-R (human)) | cAMP EC50 (hMC5-R (human)) [nM] | Substance
23 | 3.62 | 22.3 | – | – | – | – | c[Hydantoin(C(O)-(Glu-D-Ala))-His-D-Phe-Arg-Trp-Lys]-NH2 (peptide; unit assumed)
24 | – | – | 193 nM | 1.58 nM | 5.72 nM | 1110 | Ac-Arg-c(Cys-D-Ala-His-D-2-Nal-Arg-Trp-Cys)-NH2 (peptide; unit assumed)
25 | 0.177 | 12.2 | 54.3 nM | – | – | – | Hydantoin(C(O)-(Nle-Gly))-c(Cys-Glu-His-D-Phe-Arg-Trp-Cys)-NH2 (peptide; unit assumed)
26 | 0.183 | 2.03 | 14.3 nM | – | – | 2240 | Ac-Nle-c(Cys-D-Ala-His-D-Phe-Arg-Trp-Pen)-NH2 (peptide; unit assumed)
27 | 0.309 | 2.22 | 4.7 nM | – | – | – | Hydantoin(C(O)-(D-Ala-Gly))-c(Cys-D-Ala-His-D-Phe-Arg-Trp-Cys)-NH2 (peptide; unit assumed)
28 | – | 13.3 | 48.3 nM | – | – | 10000 | Ac-Arg-c(Cys-D-Ala-His-D-Phe-Arg-Trp-Pen)-NH2 (peptide; unit assumed)
29 | – | – | 0.413 nM | 0.824 nM | 9.32 nM | 0.307 | Ac-hPhe-c(Asp-His-D-2-Nal-Arg-Trp-Gaba-Lys)-NH2 (peptide; unit assumed)
30 | – | – | 269 | 5.92 | 105 | – | Ac-CEH[d2Nal]R[1Nal]ACPPKD-NH2 (disulfide 1-8) [listing 1 of 2 here]
31 | 0.0687 | 3.63 | 9.97 nM | – | – | – | Hydantoin(C(O)-(Gly-Arg))-c(Cys-Glu-His-D-Phe-Arg-Trp-Cys)-NH2 (peptide; unit assumed)
32 | – | – | – | – | – | > 10000 | Hydantoin(C(O)-(Nle-Gly))-c(Cys-Glu-His-D-Phe-Arg-Trp-Cys)-NH2 (peptide)
33 | – | – | – | – | – | 4010 | Hydantoin(C(O)-(Arg-Gly))-c(Cys-Glu-His-D-Phe-Arg-Trp-Cys)-NH2 (peptide)
34 | – | – | 690 | 4.56 | 70.7 | – | Ac-c(Cys-Glu-His-D-2-Nal-Arg-Bal-Ala-Cys)-Pro-Pro-Lys-Asp-NH2 (peptide; in nM (unit assumed))
35 | – | – | – | – | – | 352 | Hydantoin(C(O)-(Nle-Gly))-c(Cys-D-Ala-His-D-Phe-Arg-Trp-Pen)-NH2 (peptide)
36 | – | 10.5 | 26.5 nM | – | – | 2440 | Ac-D-Arg-c(Cys-D-Ala-His-D-Phe-Arg-Trp-Pen)-NH2 (peptide; unit assumed)
37 | 0.125 | 10.3 | 12.9 nM | – | – | – | Hydantoin(C(O)-(Gly-D-Arg))-c(Cys-Glu-His-D-Phe-Arg-Trp-Cys)-NH2 (peptide; unit assumed)
38 | 1.83 | 9.68 | – | – | – | – | Hydantoin(C(O)-(Leu-Nle))-c(Cys-D-Ala-His-D-Phe-Arg-Trp-Cys)-NH2 (peptide; unit assumed)
39 | 0.503 | 18.2 | 8.81 nM | – | – | – | Hydantoin(C(O)-(Arg-Gly))-c(Cys-D-Ala-His-D-Phe-Arg-Trp-Cys)-NH2 (peptide; unit assumed)

Row | cAMP EC50 (hMC4-R (human)) [nM] | cAMP EC50 (hMC3-R (human)) [nM] | cAMP EC50 (hMC1-R (human)) | cAMP Kb (hMC4-R (human)) | cAMP Kb (hMC3-R (human)) | cAMP EC50 (hMC5-R (human)) [nM] | Substance
40 | 0.336 | 2.46 | 14.2 nM | – | – | – | Hydantoin(C(O)-(Gly-Gly))-c(Cys-D-Ala-His-D-Phe-Arg-Trp-Cys)-NH2 (peptide; unit assumed)
41 | – | – | – | – | – | 1020 | Ac-D-Arg-c(Cys-D-Ala-His-D-Phe-Arg-Trp-Cys)-NH2 (peptide; unit assumed)
42 | – | – | – | – | – | 3610 | Hydantoin(C(O)-(Gly-Arg))-c(Cys-D-Ala-His-D-Phe-Arg-Trp-Cys)-NH2 (peptide)
43 | 1.85 | 8.51 | – | – | – | – | c[Hydantoin(C(O)-(Ile-Cys))-D-Ala-His-D-Phe-Arg-Trp-Cys]-NH2 (peptide; unit assumed)
44 | 0.531 | 1.89 | – | – | – | – | Ac-Nle-c(Pen-D-Ala-His-D-Phe-Arg-Trp-Cys)-NH2 (peptide; unit assumed)
45 | – | – | – | – | – | 177 | Ac-c(Cys-Glu-His-D-2-Nal-Arg-Bal-Ala-Cys)-Pro-Pro-Lys-Asp-NH2 (peptide; unit assumed)
46 | – | – | – | – | – | 9840 | Hydantoin(C(O)-(Gly-D-Arg))-c(Cys-D-Ala-His-D-Phe-Arg-Trp-Cys)-NH2 (peptide)
47 | – | – | – | – | – | 516 | Hydantoin(C(O)-(Ala-Gly))-c(Cys-D-Ala-His-D-Phe-Arg-Trp-Cys)-NH2 (peptide)
48 | 0.513 | 23.2 | 11.5 nM | – | – | – | Hydantoin(C(O)-(D-Arg-Gly))-c(Cys-D-Ala-His-D-Phe-Arg-Trp-Cys)-NH2 (peptide; unit assumed)
49 | 1.47 | 2.56 | – | – | – | – | Hydantoin(C(O)-(D-Ala-Nle))-c(Cys-D-Ala-His-D-Phe-Arg-Trp-Cys)-NH2 (peptide; unit assumed)
50 | 0.435 | 11.6 | 7.53 nM | – | – | – | Hydantoin(C(O)-(Gly-D-Arg))-c(Cys-D-Ala-His-D-Phe-Arg-Trp-Cys)-NH2 (peptide; unit assumed)
51 | – | – | – | – | – | 201 | Hydantoin(C(O)-(Gly-Gly))-c(Cys-D-Ala-His-D-Phe-Arg-Trp-Cys)-NH2 (peptide)
52 | 0.584 | 21.5 | 17 nM | – | – | – | Hydantoin(C(O)-(Nle-Gly))-c(Cys-D-Ala-His-D-Phe-Arg-Trp-Pen)-NH2 (peptide; unit assumed)
53 | – | – | – | – | – | 66.9 | Ac-CEH[d2Nal]R[2Nal]ACPPKD-NH2 (disulfide 1-8) [listing 1 of 2 here]
54 | – | – | 33.6 | 12.2 | 140 | – | Ac-CEH[d2Nal]R[2Nal]ACPPKD-NH2 (disulfide 1-8) [listing 2 of 2 here]
55 | 0.241 | 2.23 | 17.6 nM | – | – | – | Hydantoin(C(O)-(Ala-Gly))-c(Cys-D-Ala-His-D-Phe-Arg-Trp-Cys)-NH2 (peptide; unit assumed)
